# Results taken from patent publication US20070031956.
# Test system: S6 peptide (RRRLSSLRA)
# Chain of Full-length human Pim-1 kinase (residues M1-K313) with N-terminal HexaHis tag and thrombin cleavage site (chain, as listed by the source): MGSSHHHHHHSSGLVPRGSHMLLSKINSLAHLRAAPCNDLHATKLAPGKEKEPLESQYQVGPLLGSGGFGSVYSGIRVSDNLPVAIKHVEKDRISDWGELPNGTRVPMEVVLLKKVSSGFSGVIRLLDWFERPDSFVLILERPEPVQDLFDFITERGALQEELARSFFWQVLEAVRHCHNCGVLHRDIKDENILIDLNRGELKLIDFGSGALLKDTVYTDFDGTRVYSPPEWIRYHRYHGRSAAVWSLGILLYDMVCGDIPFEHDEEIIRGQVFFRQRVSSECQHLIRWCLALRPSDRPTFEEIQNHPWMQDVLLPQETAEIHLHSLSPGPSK
substance,measurement,value
Full-length human Pim-1 kinase (residues M1-K313) with N-terminal HexaHis tag and thrombin cleavage site,peptide Km (coupled-enzyme kinase assay),peptide Km=51±2 µM
